Changes are numbered by the printed parent chain.

First the molecules themselves.
T1: cynomolgus monkey SIRPα on CHO cells (cynomolgus monkey, UniProt A0A2K5VYQ9 31-507)
T1 construct: whole, on cells; also called Cyno SIRPα CHO
T1 sequence: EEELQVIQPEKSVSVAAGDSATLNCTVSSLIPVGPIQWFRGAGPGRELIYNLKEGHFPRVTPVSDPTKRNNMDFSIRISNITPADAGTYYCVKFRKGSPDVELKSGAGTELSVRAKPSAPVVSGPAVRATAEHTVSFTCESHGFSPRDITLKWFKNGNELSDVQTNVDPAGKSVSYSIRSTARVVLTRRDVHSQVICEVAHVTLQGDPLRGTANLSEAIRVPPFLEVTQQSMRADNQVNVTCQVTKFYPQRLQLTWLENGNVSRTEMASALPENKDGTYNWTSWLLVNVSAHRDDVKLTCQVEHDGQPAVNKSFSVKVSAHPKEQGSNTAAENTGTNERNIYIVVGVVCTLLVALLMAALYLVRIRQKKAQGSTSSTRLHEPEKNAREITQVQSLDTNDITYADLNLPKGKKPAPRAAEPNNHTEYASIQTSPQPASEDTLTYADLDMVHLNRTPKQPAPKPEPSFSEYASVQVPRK

T2: Cynomolgus Monkey SIRPγ (plate-coated extracellular domain)
T2 construct: also called Cyno SIRPγ
T2 extracellular domain: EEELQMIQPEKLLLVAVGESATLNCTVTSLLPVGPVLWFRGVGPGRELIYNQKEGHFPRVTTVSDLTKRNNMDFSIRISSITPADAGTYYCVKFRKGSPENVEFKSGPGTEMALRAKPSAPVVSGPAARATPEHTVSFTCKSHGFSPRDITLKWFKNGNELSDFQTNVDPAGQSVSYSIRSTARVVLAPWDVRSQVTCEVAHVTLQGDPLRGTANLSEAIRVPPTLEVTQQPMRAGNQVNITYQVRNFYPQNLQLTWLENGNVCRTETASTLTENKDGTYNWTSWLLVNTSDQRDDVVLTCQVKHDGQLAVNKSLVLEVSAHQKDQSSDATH

B1: Antibody 74 (antibody, V domains shown)
VH: QVQLVQSGAEVKKPGASVKVSCKASGGTFSNYGFSWVRQAPGQGLEWMGWMSPSSGNTGYAQKFQGRVTMTRDTSTSTVYMELSSLRSEDTAVYYCARERSGSYFDYWGQGTLVTVSS
VL: EIVMTQSPATLSVSPGERATLSCRASQSVSSYLAWYQQKPGQAPRLLIYGTSTRATGIPARFSGSGSGTEFTLTISSLQSEDFAVYYCQQYGSLPFTFGQGTRLEIK
B2: Antibody 76 (antibody, V domains shown)
VH: QVQLVQSGAEVKKPGSSVKVSCKASGGTFSKIAVSWVRQAPGQGLEWMGLINPNSGGTDYAQKFQGRVTITADESTSTAYMELSSLRSEDTAVYYCAKDFRGGDYYYYGMDVWGQGTTVTVSS
VL: B1 VL with Y32N, T51A, G92N, S93T, L94Y, F96I, R103K, L104V
B3: Antibody 63 (antibody, V domains shown)
VH: QVQLVQSGAEVKKPGASVKVSCKASGYTFTGYYMHWVRQAPGQGLEWMGIINPSGGSTNYAQKFQGRVTMTRDTSTSTVYMELSSLRSEDTAVYYCARGPIGYGMDVWGQGTLVTVSS
VL: DIQMTQSPSSLSASVGDRVTITCRASQGIGNDLGWYQQKPGKAPKLLIYAASNLETGVPSRFSGSGSGTDFTLTISSLQPEDFATYYCLQHHSYPFTFGQGTKLEIK
B4: Antibody 67 (antibody, V domains shown)
VH: QVQLVQSGAEVKKPGASVKVSCKASGYTFTNFDINWVRQAPGQGLEWMGWISAYNGHTNYAQNLQGRVTMTRDTSTSTVYMELSSLRSEDTAVYYCAQEAAAGYFDYWGQGTLVTVSS
VL: B3 VL with G28D, G30R, G34A, A50D, L89Q, H91S, H92Y, S93G, Y94T, F96Y
B5: Antibody 59 (antibody, V domains shown)
VH: QVQLVQSGAEVKKPGASVKVSCKASGYTFTSYDINWVRQAPGQGLEWMGWMNPNSGNTGYAQKFQGRVTMTRDTSTSTVYMELSSLRSEDTAVYYCARESYAYCSSTSCYDAFDIWGQGTMVTVSS
VL: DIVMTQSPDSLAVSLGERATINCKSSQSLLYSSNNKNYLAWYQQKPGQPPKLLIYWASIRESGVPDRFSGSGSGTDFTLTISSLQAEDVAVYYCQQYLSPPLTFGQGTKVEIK
B6: Antibody 58 (antibody, V domains shown)
VH: QVQLVQSGAEVKKPGASVKVSCKASGYTFTAYYMHWVRQAPGQGLEWMGIINPSGGSTSYAQKFQGRVTMTRDTSTSTVYMELSSLRSEDTAVYYCARDSGWYAPGYYYGMDVWGQGTTVTVSS
VL: DIQMTQSPSSLSASVGDRVTITCRASESISHWLAWYQQKPGKAPKLLIYGASTLQSGVPSRFSGSGSGTDFTLTISSLQPEDFATYYCQQSYTPPLTFGGGTKVEIK
B7: Antibody 81 (antibody, V domains shown)
VH: QVQLVQSGAEVKKPGASVKVSCKASGYTFTSYDINWVRQAPGQGLEWMGWISGYNGNTNYAQKFQGRVTMTRDTSTSTVYMELSSLRSEDTAVYYCARSFDWLLLLDYWGQGTLVTVSS
VL: DIQMTQSPSSLSASVGDRVTITCRASQSISSWLAWYQQKPGKAPKLLIYDATTLESGVPSRFSGSGSGTDFTLTISSLQPEDFATYYCQQYDSYPWTFGQGTKLEIK
B8: Antibody 68 (antibody, V domains shown)
VH: QVQLVQSGAEVKKPGASVKVSCKASGYTFTSYYMYWVRQAPGQGLEWMGWINPNSGNTGYAQKFQGRVTMTRDTSTSTVYMELSSLRSEDTAVYYCAKDRRRGVGLAAAGTSAFDIWGQGTMVTVSS
VL: B6 VL with E27Q, H31N, G50A, T53S, T93S, P94T, L96Y, G100Q, V104L
B9: Antibody 66 (antibody, V domains shown)
VH: QVQLVQSGAEVKKPGASVKVSCKASGGTFSSYAISWVRQAPGQGLEWMGIINPSSSSTGYAQKFQGRVTMTRDTSTSTVYMELSSLRSEDTAVYYCARAGYYDSSGYYYSPYYGMDVWGQGTTVTVSS
VL: EIVMTQSPATLSVSPGERATLSCRASQSISGSYLAWYQQKPGQAPRLLIYGASTRATGIPARFSGSGSGTEFTLTISSLQSEDFAVYYCQQYGSFPFTFGPGTKVDIK
B10: Antibody 77 (antibody, V domains shown)
VH: QVQLVQSGAEVKKPGASVKVSCKASGYTFTSYGISWVRQAPGQGLEWMGWISAYNGNTNYAQKFQGRVTMTRDTSTSTVYMELSSLRSEDTAVYYCARGTYYDYIWGSYRYSWFDYWGQGTLVTVSS
VL: not shown
B11: Antibody 56 (antibody, V domains shown)
VH: QVQLVQSGAEVKKPGASVKVSCKASGYTFTSYYMHWVRQAPGQGLEWMGWVDPNNGDTGYAQKFQGRVTMTRDTSTSTVYMELSSLRSEDTAVYYCARDNWGSLDVWGKGTTVTVSS
VL: DIVMTQSPLSLPVTPGEPASISCRSSQSLLHSNGYNYLDWYLQKPGQSPQLLIYAASTLQSGVPDRFSGSGSGTDFTLKISRVEAEDVGVYYCMQGLQTLYSFGQGTKLEIK

The target of the first assay is T1, cynomolgus monkey SIRPα on CHO cells. Nature of the assay: flow cytometry, CHO transfectants, anti-human IgG. As for the experimental part:
(§1) Selected antibodies were tested for binding to stably transfected human SIRPγ, SIRPαV1, or SIRPβ1 (co-transfected with DAP12) Chinese hamster ovary (CHO) cells via flow cytometry. A titration of select antibodies was added to the cells and detected using a fluorescently labelled secondary anti-rat IgG antibody or anti-human IgG antibody. Graphs depict the median fluorescence intensity (MFI) at each concentration. FIGS. 5A and 5G show the binding curves of select antibodies to human SIRPγ, cynomolgus monkey SIRPγ, human SIRPα, cynomolgus monkey SIRPα, human SIRPβ1, or cynomolgus monkey SIRPβl-expressing CHO cells detected using an anti-rat IgG antibody. FIGS. 5B-5F and 5H-5L show the binding curves of select antibodies to human SIRPγ, cynomolgus monkey SIRPγ, human SIRPα, cynomolgus monkey SIRPα, human SIRPβ1, or cynomolgus monkey SIRPβ1-expressing CHO cells detected using an anti-human IgG antibody. […] For select antibodies, each myc-tagged SIRPγ scFv antibody as crude PPE was incubated with each of the SIRP-expressing cell lines stated above along with the parental CHO-K1 cell line. […] Fold change value <2.0 is considered a non-binder.
(In general: A flow cytometer gives signals particle by particle.)
Regarding B1, the binding result was “no binding (tested: about 20 µg/mL)”.

With B2, the binding result is given as “no binding (tested: about 20 µg/mL)”.

For the molecule B3, the binding result is “no binding (tested: about 20 µg/mL)”.

For B4, the binding result was “no binding (tested: about 20 µg/mL)”.

Regarding B5, the binding result was “no binding (tested: about 20 µg/mL)”.

With B6, the binding result is recorded as “no binding (tested: about 20 µg/mL)”.

For the molecule B7, the binding result is “no binding (tested: about 20 µg/mL)”.

B8: the binding result is recorded as “no binding (tested: about 20 µg/mL)”.

As to B9, the binding result was “no binding (tested: about 20 µg/mL)”.

For the molecule B10, the binding result is given as “no binding (tested: about 20 µg/mL)”.

Another assay deals with T3, human SIRPβ1 on CHO cells (co-transfected with DAP12) (human, UniProt O00241 30-398).
T3 construct: whole, on cells; co-transfected with DAP12; also called Human SIRPβ1 CHO
T3 sequence (O00241 30-398): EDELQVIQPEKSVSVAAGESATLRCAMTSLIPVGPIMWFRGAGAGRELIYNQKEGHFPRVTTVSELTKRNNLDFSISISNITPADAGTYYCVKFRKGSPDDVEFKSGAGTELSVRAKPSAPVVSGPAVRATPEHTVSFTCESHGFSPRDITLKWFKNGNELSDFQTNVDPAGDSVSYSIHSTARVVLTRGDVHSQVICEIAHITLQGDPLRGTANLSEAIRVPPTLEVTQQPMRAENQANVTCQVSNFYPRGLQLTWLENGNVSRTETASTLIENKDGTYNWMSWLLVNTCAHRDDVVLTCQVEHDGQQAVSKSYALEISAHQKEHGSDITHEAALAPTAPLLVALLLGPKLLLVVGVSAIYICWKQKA
Nature of the assay: flow cytometry, CHO transfectants, anti-human IgG. As for the experimental part: as §1
On to B1, for which the binding result is given as “no binding (tested: about 20 µg/mL)”.

Take B2: the binding result is “no binding (tested: about 20 µg/mL)”.

As to B3, the binding result is given as “no binding (tested: about 20 µg/mL)”.

Turning to B4, the binding result is “no binding (tested: about 20 µg/mL)”.

As for B5, the binding result is on record as “no binding (tested: about 20 µg/mL)”.

On to B6, for which the binding result is on record as “no binding (tested: about 20 µg/mL)”.

As to B7, the binding result is reported as “no binding (tested: about 20 µg/mL)”.

Take B8: the binding result is “no binding (tested: about 20 µg/mL)”.

Consider B9, for which the binding result is given as “no binding (tested: about 20 µg/mL)”.

B11: the binding result was “no binding (tested: about 20 µg/mL)”.

Turning to B10, the binding result was “no binding (tested: about 20 µg/mL)”.

The next assay concerns the target T2, Cynomolgus Monkey SIRPγ (plate-coated …). Nature of the assay: ELISA, coated SIRP ECD (2 µg/mL), anti-human IgG, luminescence. As to the method:
(§2) Selected hybridoma supernatants of Example 1 were tested for binding to human SIRPγ, cynomolgus monkey SIRPγ, human SIRPα V1, cynomolgus monkey SIRPα, human SIRPβ1, and cynomolgus monkey SIRPβ1 by enzyme-linked immunosorbent assay (ELISA). Briefly, 2 μg/mL of the extracellular domain of SIRP protein was coated onto high protein-binding plates and blocked. Undiluted supernatants were added to coated plates. The antibodies were detected by an anti-rat antibody and a chemiluminescent substrate. […] The data depict the relative luminescence units read by a plate-reader capable of detecting chemiluminescence.
(§3) FIGS. 2A-2G show binding curves of SIRPγ antibodies and human Fc isotype controls to human SIRPγ, cynomolgus monkey SIRPγ, human SIRPα V1, human SIRPα V2, and human SIRPβ1 by ELISA. […] Isotype control 2 was an unrelated human IgG1 antibody with irrelevant CDRs with no modifications in the Fc region. DNA was transiently transfected into Expi293F cells for 5 days. Antibodies were purified by Protein A from cell supernatants and analyzed in a titration via ELISA as previously described in FIG. 1 using an anti-human IgG antibody as the detection antibody.
With B1, the EC50 (read off the curve) (as a rule, the concentration needed to bring the measured effect to its halfway point) was around 0.7 µg/mL.

With B2, the “EC50 (read off the curve)” value is around 0.1 µg/mL.

Regarding B3, the “EC50 (read off the curve)” value was around 1 µg/mL.

For B4, the binding result is on record as “binds”.

For B5, the “EC50 (read off the curve)” value is around 0.3 µg/mL.

Turning to B6, the “EC50 (read off the curve)” value was around 0.1 µg/mL.

In the case of B7, the “EC50 (read off the curve)” value was around 0.04 µg/mL.

With B8, the “EC50 (read off the curve)” value is around 1 µg/mL.

As to B9, the “EC50 (read off the curve)” value is around 0.1 µg/mL.

Turning to B11, the “EC50 (read off the curve)” value was around 0.4 µg/mL.

For the molecule B10, the “EC50 (read off the curve)” value is around 0.04 µg/mL.

A further assay deals with T4, extracellular binding domain of human SIRPγ (plate-coated) (human, UniProt Q9P1W8 29-360).
T4 construct: also called hSIRPγ
T4 sequence (Q9P1W8 29-360 limits assumed): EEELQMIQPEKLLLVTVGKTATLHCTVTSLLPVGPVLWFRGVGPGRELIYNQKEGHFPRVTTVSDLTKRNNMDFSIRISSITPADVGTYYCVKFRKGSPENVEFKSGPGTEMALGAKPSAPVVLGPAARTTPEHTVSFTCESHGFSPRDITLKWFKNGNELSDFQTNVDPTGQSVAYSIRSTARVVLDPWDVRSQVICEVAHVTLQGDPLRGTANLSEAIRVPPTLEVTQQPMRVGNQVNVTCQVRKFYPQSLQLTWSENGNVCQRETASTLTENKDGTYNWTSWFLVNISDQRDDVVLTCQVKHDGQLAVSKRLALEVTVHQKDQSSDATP
The assay is described as above. As to the method:
as §2, §3
On to B1, for which the “EC50 (read off the curve)” value was around 0.4 µg/mL.

Turning to B2, the “EC50 (read off the curve)” value is around 0.09 µg/mL.

As to B3, the “EC50 (read off the curve)” value is around 0.8 µg/mL.

As for B5, the “EC50 (read off the curve)” value was around 0.08 µg/mL.

In the case of B6, the “EC50 (read off the curve)” value is around 0.09 µg/mL.

For B7, the “EC50 (read off the curve)” value was around 0.02 µg/mL.

Regarding B8, the “EC50 (read off the curve)” value was around 0.5 µg/mL.

As to B11, the “EC50 (read off the curve)” value is around 0.7 µg/mL.

As to B10, the “EC50 (read off the curve)” value was around 0.02 µg/mL.

The record behind these values is patent US20240400677A1 (ELECTRA THERAPEUTICS, published 2024).
